Consider 1 molecule from patent US20210395318A1 (Molecular Partners, published 2021).

For one test, the target named is T1, cynomolgus FAP (cynomolgus).
T1 chain: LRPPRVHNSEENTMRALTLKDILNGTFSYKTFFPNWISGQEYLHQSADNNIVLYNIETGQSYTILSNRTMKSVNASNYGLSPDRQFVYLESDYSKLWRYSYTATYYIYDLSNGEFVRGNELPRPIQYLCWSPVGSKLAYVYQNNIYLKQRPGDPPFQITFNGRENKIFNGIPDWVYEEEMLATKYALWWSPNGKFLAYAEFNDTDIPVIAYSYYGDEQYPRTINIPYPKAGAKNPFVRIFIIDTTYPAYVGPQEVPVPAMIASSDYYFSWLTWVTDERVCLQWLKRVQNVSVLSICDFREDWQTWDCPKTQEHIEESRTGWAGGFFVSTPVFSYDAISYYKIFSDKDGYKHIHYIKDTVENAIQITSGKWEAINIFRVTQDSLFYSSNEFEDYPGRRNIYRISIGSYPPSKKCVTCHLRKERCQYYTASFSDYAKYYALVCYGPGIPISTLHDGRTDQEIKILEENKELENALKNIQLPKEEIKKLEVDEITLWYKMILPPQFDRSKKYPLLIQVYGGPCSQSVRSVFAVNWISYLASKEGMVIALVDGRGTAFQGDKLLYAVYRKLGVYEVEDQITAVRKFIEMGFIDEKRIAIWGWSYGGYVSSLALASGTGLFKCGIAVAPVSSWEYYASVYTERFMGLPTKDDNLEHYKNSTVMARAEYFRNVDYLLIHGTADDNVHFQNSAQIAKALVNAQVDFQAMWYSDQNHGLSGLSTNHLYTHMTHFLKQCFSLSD
In words: SPR (ProteOn XPR36), FAP immobilized on GLC chip, Protein #5 as analyte, PBST, 1:1 Langmuir. How it is done:
(§1) All SPR measurements were performed using a ProteOn XPR36 instrument (BioRad) and a running buffer of PBS pH 7.4 containing 0.005% Tween 20® (PBST). The 1:1 Langmuir model was used for the fitting of SPR traces.
(§2) ProteOn setup for Protein #5 binding to FAP of different species. hFAP, cynomolgus FAP (cFAP) and mouse FAP (mFAP) were immobilized on a GLC chip (BioRad) in 10 mM Na Acetate buffer pH5.3 to a level of 1200 RU, 800 RU and 2000 RU, respectively. The interaction of FAP and Protein #5 was measured by applying Protein #5 in a serial dilution of […] and 3.13 nM with an association of 120 s and dissociation of 1800 s using a constant flow of 100 μl/min. The targets were regenerated using 10 mM glycine pH 2 and 124 mM H₃PO₄. The signals were double referenced against the PBST treated control lanes.

Another test addresses T2, human FAP (recombinant) (human, UniProt Q12884 26-760).
T2 construct: also called hFAP; rhFAP
T2 sequence: T1 chain with P4S, F236V, D392E
The description is as above. As for the experimental part:
as §1, §2

In a further test the target is T3, cynomolgus serum albumin (cynomolgus, UniProt A2V9Z4 25-608).
T3 construct: also called CSA
T3 sequence (A2V9Z4 25-608 limits assumed): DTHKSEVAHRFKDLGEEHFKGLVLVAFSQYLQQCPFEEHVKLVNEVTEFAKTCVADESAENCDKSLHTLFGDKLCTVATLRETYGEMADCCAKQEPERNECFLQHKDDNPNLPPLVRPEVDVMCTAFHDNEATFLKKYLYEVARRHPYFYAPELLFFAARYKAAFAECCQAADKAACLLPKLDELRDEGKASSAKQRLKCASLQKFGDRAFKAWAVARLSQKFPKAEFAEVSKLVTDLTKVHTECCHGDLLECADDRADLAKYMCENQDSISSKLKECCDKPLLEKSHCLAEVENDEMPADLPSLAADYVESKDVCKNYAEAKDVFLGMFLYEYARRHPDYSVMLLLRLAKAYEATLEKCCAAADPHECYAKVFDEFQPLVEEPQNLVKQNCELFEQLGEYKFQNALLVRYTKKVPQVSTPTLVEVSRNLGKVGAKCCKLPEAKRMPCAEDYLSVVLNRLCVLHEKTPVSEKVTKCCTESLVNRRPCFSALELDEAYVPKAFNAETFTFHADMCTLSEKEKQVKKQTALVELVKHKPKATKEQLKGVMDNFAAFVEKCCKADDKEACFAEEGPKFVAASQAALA
As to the kind of experiment: SPR (ProteOn XPR36), Protein #5 captured on hFAP-coated GLC chip, serum albumin as analyte, PBST. How it is done: as §1
ProteOn setup for Protein #5 binding to serum albumin of different species. First, human FAP (hFAP) was coated on a GLC chip (BioRad) to a level of 700 RU before 50 nM Protein #5 was immobilized as analyte for 120 s (dissociation of 0 s) at constant flow of 100 μl/min to a level of 120 RU. The binding of the serum albumin to Protein #5 was measured by injecting human serum albumin (HSA), cynomolgus serum albumin (CSA) and mouse serum albumin (MSA) in a serial dilution of 100, 33, 11 and 3.7 nM with an association of 120 s and a dissociation of 600 s at a constant flow of 100 μl/min. HSA, CSA and MSA binding was measured serially and the hFAP/Protein #5 complex was regenerated each time with 10 mM glycine pH2 for 18 s at a flow of 100 μl/min. Thus, Protein #5 had to be re-immobilized on hFAP after each regeneration step. […] The kinetic was calculated on the first 300 s of dissociation.

Residue numbers refer to the chain shown, from its start.

B1: DARPin Protein #5 (designed binder)
chain: GSDLGKKLLEAARAGQDDEVRELLKAGADVNAKDYFSHTPLHLAARNGHLKIVEVLLKAGADVNAKDFAGKTPLHLAAADGHLEIVEVLLKAGADVNAQDIFGKTPADIAADAGHEDIAEVLQKAAGSPTPTPTTPTPTPTTPTPTPTGSDLGKKLLEAARAGQDDEVRILLAAGADVNAKDVLGWTPLHLAAFEGHLEIVEVLLKAGADVNAKDKKGWTPLQLAARTGHLEIVEVLLKAGADVNAKDHIGATPLHLAAWQGHPEIVEVLLKAGADVNAQDKSGKTPADLAADAGHEDIAEVLQKAAGSPTPTPTTPTPTPTTPTPTPTGSDLGKKLLQAARAGQLDEVRELLKAGADVNAKDTWGFTPLHIAAESGHLEIVEVLLKAGADVNAKDVQGRTPLHIAAHSGHLEIVEVLLKAGADVNAKDFRGWTPLHLAAWSGHLEIVEILLKAGADVNAQDKSGKTPADLAARAGHQDIAEVLQKAAGSPTPTPTTPTPTPTTPTPTPTGSDLGKKLLQAARAGQLDEVRELLKAGADVNAKDTWGFTPLHIAAESGHLEIVEVLLKAGADVNAKDVQGRTPLHIAAHSGHLEIVEVLLKAGADVNAKDFRGWTPLHLAAWSGHLEIVEILLKAGADVNAQDKSGKTPADLAARAGHQDIAEVLQKAA
notes: also called SMA136; Molecule No. 1
As for B1, in the test with cynomolgus FAP, binding was put at a Kd of 0.339 nM, the koff (commonly the rate constant with which the complex falls apart) was 0.000146 s⁻¹ and the kon (usually the second-order rate constant of association) was 432000 M⁻¹ s⁻¹. In the test with human FAP (recombinant), the Kd (in general, the equilibrium constant for the complex coming apart) worked out at 0.307 nM; the off-rate constant (koff) was 0.000126 s⁻¹; the kon turned out to be 409000 M⁻¹ s⁻¹. In addition, in the test with cynomolgus serum albumin, the Kd was determined as 409 nM, the koff is 0.217 s⁻¹ and the kon is 532000 M⁻¹ s⁻¹.
